T1: human TREM2 (human, UniProt Q9NZC2 19-230)
T1 sequence: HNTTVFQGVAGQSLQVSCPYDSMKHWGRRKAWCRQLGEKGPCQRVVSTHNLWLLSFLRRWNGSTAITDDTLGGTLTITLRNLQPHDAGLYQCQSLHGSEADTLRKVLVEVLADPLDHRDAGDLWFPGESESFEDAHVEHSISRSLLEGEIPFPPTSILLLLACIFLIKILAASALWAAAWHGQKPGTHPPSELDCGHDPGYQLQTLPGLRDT

T2: mouse TREM2 (mouse, UniProt Q99NH8 19-227)
T2 construct: whole, on cells
T2 sequence (looked up): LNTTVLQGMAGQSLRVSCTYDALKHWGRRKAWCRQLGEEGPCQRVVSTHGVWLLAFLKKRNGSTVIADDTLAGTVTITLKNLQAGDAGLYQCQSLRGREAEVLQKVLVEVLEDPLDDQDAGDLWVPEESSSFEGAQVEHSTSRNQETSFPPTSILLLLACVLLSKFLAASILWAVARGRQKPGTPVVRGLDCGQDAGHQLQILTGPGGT

T3: cynomolgus TREM2 (cynomolgus, UniProt A0A2K5UY34 49-260)
T3 construct: also called cynoTREM2; cTREM2
T3 sequence: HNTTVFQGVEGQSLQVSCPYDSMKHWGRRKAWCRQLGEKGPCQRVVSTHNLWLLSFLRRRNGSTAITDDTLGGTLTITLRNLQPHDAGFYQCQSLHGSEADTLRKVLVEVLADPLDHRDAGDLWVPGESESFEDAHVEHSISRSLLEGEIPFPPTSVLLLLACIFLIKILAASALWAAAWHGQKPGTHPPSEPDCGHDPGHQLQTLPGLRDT


Legend:
human TREM2 [1] = target: T1, human TREM2; experiment: cell-based or functional assay
human TREM2 [2] = target: T1, human TREM2; experiment: flow cytometry, competition with LDL-Alexafluor-488 on CHO cells overexpressing human TREM2/DAP12
Description: (§1) Exemplary anti-TREM2 antibodies were tested in order to characterize their ability to enter in competition with TREM2 ligand, LDL, on CHO overexpressing human TREM2/DAP12. Antibodies (dose response curves from 66.65 nM to 0.07 nM) were incubated for 30 min with cells in a soluble fashion, followed by an incubation with LDL coupled with Alexafluor-488 (at 1 μg/mL final) for 30 min. Finally, after 2 washes, cells were acquired on flow cytometer. The median MFI of Alexafluor-488 was used to plot the graphs. Benchmark antibody MOR044746 was used as positive control.

mouse TREM2 [3] = target: T2, mouse TREM2; experiment: MFI on CT26 cells over-expressing mouse TREM2 and DAP12
Description: (§2) Cross-reactivity to mouse TREM2 was assessed using CT26 cells over-expressing mouse TREM2 and DAP12 (Table 23). Eight anti-TREM2 antibodies and both benchmark antibodies were considered cross-reactive to mouse TREM2 (MFI higher than isotype control and fold change of CT26-TREM2 over the CT26 Empty Vector higher than 5). The remaining anti-TREM2 antibodies were considered as being low to not cross-reactive (fold change less than 5). EOS006171 was not tested due to clear non-cross-reactivity preliminary data by octet (data not shown).

human TREM2 [4] = target: T1, human TREM2; experiment: flow cytometry, M2a-like macrophages, dose-response
Description: (§3) M2a-like macrophages were produced in vitro from monocytes of healthy donors. Briefly, after PBMCs isolation from peripheral blood using Lymphoprep™ gradient, CD14+ cells were purified and seeded in presence of MCSF 50 ng/ml for 6 days. Macrophages were then cultured with IL-13 and IL-4 at a concentration of 20 ng/ml for two additional days and then used for a cell-based binding assay.
(§4) M2a-like macrophages were incubated with anti-TREM2 antibodies (dose-response curve with 11 concentrations from 10 μg/ml to 0.0001 μg/ml) for 30 min at 4° C. After washing, bound antibodies were detected with a secondary anti-human IgG Fc PE-labelled for 30 min at 4° C. Fluorescence intensity was measured by flow cytometry. Equilibrium dissociation constant (kD) was then calculated for each antibody using median MFI normalized over isotype control.

cynomolgus TREM2 [5] = target: T3, cynomolgus TREM2; experiment: MFI on CHO cells over-expressing cynoTREM2-DAP12
Description: (§5) Cross-reactivity of anti-TREM2 antibodies to cynomolgus TREM2 (cynoTREM2) was assessed using CHO over-expressing cynoTREM2-DAP12 (Table 22). Benchmark antibodies, AB52 and PN-37012, were examined for comparison.

human TREM2 [6] = target: T1, human TREM2; experiment: flow cytometry, THP-1 WT vs THP-1 TREM2 KO cells, 10 ug/ml
Description: (§6) In order to test specificity of selected antibodies to TREM2, binding was tested by flow cytometry on THP-1 TREM2 KO (clone, produced using CRISPR technology in house) and on THP-1 WT. Cells were incubated with selected anti-TREM2 antibodies (final concentration of 10 μg/ml) for 30 min at 4° C. After washing, bound antibodies were detected with a secondary anti-human IgG Fc PE-labelled for 30 min at 4° C. Fluorescence intensity was measured by flow cytometry.

human TREM2 [7] = target: T1, human TREM2; experiment: flow cytometry, THP-1 WT cells, 10 ug/ml
Description: as §6

human TREM2 [8] = target: T1, human TREM2; experiment: flow cytometry, M2a-like macrophages
Description: as §3, §4

mouse TREM2 [9] = target: T2, mouse TREM2; experiment: MFI on CT26 cells over-expressing mouse TREM2 and DAP12 vs CT26 empty vector
Description: as §2

human TREM2 [10] = target: T1, human TREM2; experiment: cell-based or functional assay; remark: listed apart in the source
cynomolgus TREM2 [11] = target: T3, cynomolgus TREM2; experiment: MFI on CHO cells over-expressing cynoTREM2-DAP12 vs CHO empty vector
Description: as §5

mouse TREM2 [12] = target: T2, mouse TREM2; experiment: MFI on CT26 cells over-expressing mouse TREM2 and DAP12; column 'Considered cross-reactive'
Description: as §2

human TREM2 [13] = target: T1, human TREM2; experiment: flow cytometry, competition with LDL-Alexafluor-488 on CHO cells overexpressing human TREM2/DAP12; only 1 value generated
Description: as §1

human TREM2 [14] = target: T1, human TREM2; experiment: flow cytometry, competition with LDL-Alexafluor-488 on CHO cells overexpressing human TREM2/DAP12; positive control
Description: as §1

Binder	Fold over isotype control at 66 nM (human TREM2 [1])	IC50 (human TREM2 [2])	Binding to CT26-TREM2 MFI (mouse TREM2 [3])	Kd (human TREM2 [4])	Binding to CHO-cTREM2 MFI (cynomolgus TREM2 [5])	MFI Fold change (THP-1 WT over THP-1 TREM2 KO) (human TREM2 [6])	Fold over isotype control THP1 WT (human TREM2 [7])	Fold over isotype (human TREM2 [8])	MFI Fold change (CT26-TREM2 over CT26-EV) (mouse TREM2 [9])	Stabilization ratio (Mean of 2 replicates) (human TREM2 [10])	MFI Fold change (CHO-cTREM2 over CHO-EV) (cynomolgus TREM2 [11])	binding result (mouse TREM2 [12])	IC50 (human TREM2 [13])	IC50 (human TREM2 [14])
EOS006165 (antibody, V domains shown) VH: QVQLVQSGAEVKKPGSSVKVSCKASGGTFSSYAISWVRQAPGQGLEWMGGIIPISGTANYAQKFQGRVTITADESTSTAYMELSSLRSEDTAVYYCARTQEYTAFDIWGQGTMVTVSS VL: EIVLTQSPATLSLSPGERATLSCRASQSVSSYLAWFQQKPGQAPRLLIYDASNRATGIPARFSGSGSGTDFTLTISSLEPEDFAVYYCQQDYHWPITFGGGTKVEIK	1.03 fold	5290 pM	649 MFI	410 pM	8500 MFI	2.5 fold	1.7 fold	2.2 fold	2.3 fold	0.54 ratio	189 fold	no binding (tested: fold change less than 5)		
EOS006162 (antibody, V domains shown) VH: QVQLVQSGAEVKKPGSSVKVSCKASGGTFSSYAISWVRQAPGQGLEWMGGIIPISGTANYAQKFQGRVTITADESTSTAYMELSSLRSEDTAVYYCARTQEYTLFDSWGQGTMVTVSS VL: EIVLTQSPATLSLSPGERATLSCRASQSVSSYLAWFQQKPGQAPRLLIYDASNRATGIPARFSGSGSGTDFTLTISSLEPEDFAVYYCQQDYHWPITFGGGTKVEIK	0.785 fold	116 pM	2000 MFI	130 pM	17100 MFI	11 fold	9.9 fold	10.8 fold	6.4 fold	0.4 ratio	393 fold	no binding		
EOS006172 (antibody, V domains shown) VH: QVQLVQSGAEVKKPGSSVKVSCKASGGTFSSYAISWVRQAPGQGLEWMGGIIPISGTANYAQKFQGRVTITADESTSTAYMELSSLRSEDTAVYYCARTQEYTLFDIWGQGTMVTVSS VL: EIVLTQSPATLSLSPGERATLSCRASQSVSSYLAWFQQKPGQAPRLLIYDASNRATGIPARFSGSGSGTDFTLTISSLEPEDFAVYYCQQDFHWPITFGGGTKVEIK	0.59 fold	115 pM	1660 MFI	90 pM	17200 MFI	8.9 fold	8.7 fold	9.8 fold	4.9 fold	0.46 ratio	418 fold	no binding (tested: fold change less than 5)		
EOS006175 (antibody, V domains shown) VH: QVQLQESGPGLVKPSGTLSLTCAVSGGSISSSNWWSWVRQPPGKGLEWIGEIYHSGSTNYNPSLKSRVTISVDKSKNQFSLKLSSVTAADTAVYYCARDTKYWGGMDVWGQGTTVTVSS VL: DIQMTQSPSSLSASVGDRVTITCQASQDISNYLNWYQQKPGKAPKLLIYDASNLATGVPSRFSGSGSGTDFTFTISSLQPEDIATYYCQQYVEAPTFGGGTKVEIK	0.757 fold		1390 MFI	1060 pM	10200 MFI	5.8 fold	5.5 fold	5.8 fold	3.9 fold	0.39 ratio	233 fold		280 pM	
EOS004283 (antibody, human IgG1, kappa, V domains shown) VH: QVQLVQSGAEVKKPGSSVKVSCKASGGTFAQYAISWVRQAPGQGLEWMGVIIPDSGTANYAQKFQGRVTITADESTSTAYMELSSLRSEDTAVYYCARTQENTIFDIWGQGTLVTVSS VL: EIVLTQSPATLSLSPGERATLSCRASQSVSSYLAWFQQKPGQAPRLLIYDASNRATGIPARFSGSGSGTDFTLTISSLEPEDFAVYYCQQDYEWPITFGGGTKVEIKR	0.267 fold												138 pM	
MOR044746 (antibody, V domains shown, benchmark anti-TREM2 antibody from WO2020079580) VH: QVQLQQSGPGLVKPSQTLSLTCAISGDSVSSSSAAWNWIRQSPSRGLEWLGHIGYRSKWYNEYAVSVKSRITINPDTSKNQFSLQLNSVTPEDTAVYYCARGMYGSVPYKEGYYFDIWGQGTLVTVSS VL: DIQMTQSPSSLSASVGDRVTITCRASQGISSDLNWYQQKPGKAPKLLIYAASNLQSGVPSRFSGSGSGTDFTLTISSLQPEDFATYYCQQYTDESMTFGQGTKVEIK														395 pM

Reference: patent US20250282868A1 (ITEOS BELGIUM, published 2025)
